Data as given in patent CN116284393A (BEIJING DONGFANG BIOTECH CO LTD, dated 2023).

Key:
[1] = target: T1, 人单核细胞白血病细胞(THP-1)表面LILRB4 (human, UniProt Q8NHJ6 22-448); test: cell-based or functional assay
LILRA5 [2] = target: T2, LILRA5 (UniProt A6NI73 42-268, limits assumed); test: ELISA, coated protein 100ng/well
LILRA6 [3] = target: T3, LILRA6 (UniProt Q6PI73 24-447, limits assumed); test: ELISA, coated protein 100ng/well
LILRB1 [4] = target: T4, LILRB1 (UniProt Q8NHL6 24-461, limits assumed); test: ELISA, coated protein 100ng/well
LILRB2 [5] = target: T5, LILRB2 (UniProt Q8N423 22-460, limits assumed); test: ELISA, coated protein 100ng/well
LILRB3 [6] = target: T6, LILRB3 (UniProt O75022 24-443, limits assumed); test: ELISA, coated protein 100ng/well
LILRB5 [7] = target: T7, LILRB5 (UniProt O75023 24-458, limits assumed); test: ELISA, coated protein 100ng/well
LILRA1 [8] = target: T8, LILRA1 (UniProt O75019 17-461, limits assumed); test: ELISA, coated protein 100ng/well
LILRA2 [9] = target: T9, LILRA2 (UniProt Q8N149 24-449, limits assumed); test: ELISA, coated protein 100ng/well
LILRA3 [10] = target: T10, LILRA3 (UniProt Q8N6C8 24-439); test: ELISA, coated protein 100ng/well
LILRA4 [11] = target: T11, LILRA4 (UniProt P59901 24-446, limits assumed); test: ELISA, coated protein 100ng/well
LILRA5 [12] = target: T2, LILRA5; test: ELISA, coated protein, antibody at 50μg/mL
LILRA6 [13] = target: T3, LILRA6; test: ELISA, coated protein, antibody at 50μg/mL
LILRB1 [14] = target: T4, LILRB1; test: ELISA, coated protein, antibody at 50μg/mL
LILRB2 [15] = target: T5, LILRB2; test: ELISA, coated protein, antibody at 50μg/mL
LILRB3 [16] = target: T6, LILRB3; test: ELISA, coated protein, antibody at 50μg/mL
LILRB5 [17] = target: T7, LILRB5; test: ELISA, coated protein, antibody at 50μg/mL
LILRB4抗原 (人LILRB4蛋白胞外段) [18] = target: T12, LILRB4抗原 (人LILRB4蛋白胞外段) (human, UniProt Q8NHJ6 22-259); test: ELISA, coated protein, antibody at 50μg/mL
T12 construct: extracellular domain; Made in house from a synthesised gene

LILRA1 [19] = target: T8, LILRA1; test: ELISA, coated protein, antibody at 50μg/mL
LILRA2 [20] = target: T9, LILRA2; test: ELISA, coated protein, antibody at 50μg/mL
LILRA3 [21] = target: T10, LILRA3; test: ELISA, coated protein, antibody at 50μg/mL
LILRA4 [22] = target: T11, LILRA4; test: ELISA, coated protein, antibody at 50μg/mL
LILRB4抗原 (人LILRB4蛋白胞外段) [23] = target: T12, LILRB4抗原 (人LILRB4蛋白胞外段); test: ELISA, coated LILRB4, Goat Anti-Mouse IgG-HRP
[24] = target: T1, 人单核细胞白血病细胞(THP-1)表面LILRB4; test: flow cytometry on THP-1 cells, FITC goat anti-mouse IgG
[25] = target: T1, 人单核细胞白血病细胞(THP-1)表面LILRB4; test: flow cytometry competition on THP-1 cells, competitor FITC-labelled ApoE 0.4μg/mL

T6 sequence (O75022 24-443 limits assumed): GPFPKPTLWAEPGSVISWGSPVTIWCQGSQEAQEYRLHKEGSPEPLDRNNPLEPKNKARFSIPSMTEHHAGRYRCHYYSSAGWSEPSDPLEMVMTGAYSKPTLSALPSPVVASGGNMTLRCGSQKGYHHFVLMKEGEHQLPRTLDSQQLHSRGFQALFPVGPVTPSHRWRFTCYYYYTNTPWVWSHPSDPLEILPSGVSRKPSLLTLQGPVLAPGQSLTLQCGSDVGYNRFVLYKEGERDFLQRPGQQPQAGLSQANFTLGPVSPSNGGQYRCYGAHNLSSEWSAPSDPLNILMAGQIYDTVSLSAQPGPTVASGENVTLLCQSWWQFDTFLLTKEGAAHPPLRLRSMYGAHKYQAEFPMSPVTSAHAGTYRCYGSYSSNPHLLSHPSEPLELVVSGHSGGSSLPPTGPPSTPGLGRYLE
T9 sequence (Q8N149 24-449 limits assumed): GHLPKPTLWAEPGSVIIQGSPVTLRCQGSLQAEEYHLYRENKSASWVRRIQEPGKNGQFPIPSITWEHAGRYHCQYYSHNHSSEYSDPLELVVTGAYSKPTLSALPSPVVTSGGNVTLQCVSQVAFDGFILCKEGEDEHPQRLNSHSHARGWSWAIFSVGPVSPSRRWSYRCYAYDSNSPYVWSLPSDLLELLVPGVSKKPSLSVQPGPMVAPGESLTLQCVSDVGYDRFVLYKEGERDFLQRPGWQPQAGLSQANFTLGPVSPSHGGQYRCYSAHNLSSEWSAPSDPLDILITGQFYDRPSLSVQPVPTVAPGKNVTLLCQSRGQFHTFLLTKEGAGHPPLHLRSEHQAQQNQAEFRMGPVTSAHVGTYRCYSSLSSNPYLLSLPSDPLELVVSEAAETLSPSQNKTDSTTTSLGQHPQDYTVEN
T7 sequence (O75023 24-458 limits assumed): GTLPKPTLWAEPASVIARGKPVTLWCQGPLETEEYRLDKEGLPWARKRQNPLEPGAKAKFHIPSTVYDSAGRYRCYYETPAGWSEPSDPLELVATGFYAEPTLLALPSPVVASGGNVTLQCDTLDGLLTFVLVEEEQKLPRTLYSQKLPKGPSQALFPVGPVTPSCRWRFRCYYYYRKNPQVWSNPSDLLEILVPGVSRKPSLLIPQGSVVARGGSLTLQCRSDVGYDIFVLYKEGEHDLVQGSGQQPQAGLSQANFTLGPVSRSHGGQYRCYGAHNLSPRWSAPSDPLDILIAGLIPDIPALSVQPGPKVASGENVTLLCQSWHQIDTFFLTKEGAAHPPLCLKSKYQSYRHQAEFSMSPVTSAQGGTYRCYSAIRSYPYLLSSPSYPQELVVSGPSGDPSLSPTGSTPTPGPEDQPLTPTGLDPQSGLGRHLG
T8 sequence (O75019 17-461 limits assumed): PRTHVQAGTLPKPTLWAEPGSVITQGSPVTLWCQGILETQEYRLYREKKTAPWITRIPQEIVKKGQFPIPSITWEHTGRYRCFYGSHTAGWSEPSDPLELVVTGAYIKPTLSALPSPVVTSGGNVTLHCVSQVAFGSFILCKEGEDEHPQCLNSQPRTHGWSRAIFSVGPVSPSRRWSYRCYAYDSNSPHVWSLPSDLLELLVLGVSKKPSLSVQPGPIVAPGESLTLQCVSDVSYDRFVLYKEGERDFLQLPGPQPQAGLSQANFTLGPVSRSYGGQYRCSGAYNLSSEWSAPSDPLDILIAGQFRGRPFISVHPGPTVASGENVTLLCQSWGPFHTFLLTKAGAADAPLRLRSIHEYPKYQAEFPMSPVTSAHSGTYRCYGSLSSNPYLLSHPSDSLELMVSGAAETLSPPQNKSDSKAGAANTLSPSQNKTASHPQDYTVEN
T5 sequence (Q8N423 22-460 limits assumed): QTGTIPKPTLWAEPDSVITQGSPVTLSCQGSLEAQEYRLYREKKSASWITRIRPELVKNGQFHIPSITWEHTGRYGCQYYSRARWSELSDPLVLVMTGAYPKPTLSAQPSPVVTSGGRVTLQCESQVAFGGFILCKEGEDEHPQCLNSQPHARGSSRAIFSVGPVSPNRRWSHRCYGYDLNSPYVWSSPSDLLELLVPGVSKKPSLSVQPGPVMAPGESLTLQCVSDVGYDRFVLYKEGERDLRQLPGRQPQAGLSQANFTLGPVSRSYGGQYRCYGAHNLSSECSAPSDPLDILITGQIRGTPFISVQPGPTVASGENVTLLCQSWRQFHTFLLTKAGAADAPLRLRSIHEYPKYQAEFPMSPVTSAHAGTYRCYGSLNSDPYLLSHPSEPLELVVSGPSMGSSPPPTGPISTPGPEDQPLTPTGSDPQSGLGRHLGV
T4 sequence (Q8NHL6 24-461 limits assumed): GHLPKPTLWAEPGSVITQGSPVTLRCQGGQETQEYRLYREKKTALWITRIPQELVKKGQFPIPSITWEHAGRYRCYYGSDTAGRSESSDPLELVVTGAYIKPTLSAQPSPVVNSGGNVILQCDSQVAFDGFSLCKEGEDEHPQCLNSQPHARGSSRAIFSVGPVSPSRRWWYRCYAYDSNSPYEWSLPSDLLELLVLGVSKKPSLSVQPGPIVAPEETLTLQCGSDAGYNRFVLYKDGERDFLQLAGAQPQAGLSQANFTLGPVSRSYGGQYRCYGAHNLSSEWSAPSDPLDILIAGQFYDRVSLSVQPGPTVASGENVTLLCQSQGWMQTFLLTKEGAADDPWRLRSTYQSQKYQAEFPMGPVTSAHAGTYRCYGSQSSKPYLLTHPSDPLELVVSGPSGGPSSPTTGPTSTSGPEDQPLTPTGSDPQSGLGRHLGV
T2 sequence (A6NI73 42-268 limits assumed): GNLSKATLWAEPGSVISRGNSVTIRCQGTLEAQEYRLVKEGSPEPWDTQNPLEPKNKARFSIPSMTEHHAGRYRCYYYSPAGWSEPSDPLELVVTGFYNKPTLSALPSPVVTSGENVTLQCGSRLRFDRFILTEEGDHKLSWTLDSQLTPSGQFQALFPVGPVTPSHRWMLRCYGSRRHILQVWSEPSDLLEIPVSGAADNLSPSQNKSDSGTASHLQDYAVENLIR
T10 sequence (Q8N6C8 24-439 limits assumed): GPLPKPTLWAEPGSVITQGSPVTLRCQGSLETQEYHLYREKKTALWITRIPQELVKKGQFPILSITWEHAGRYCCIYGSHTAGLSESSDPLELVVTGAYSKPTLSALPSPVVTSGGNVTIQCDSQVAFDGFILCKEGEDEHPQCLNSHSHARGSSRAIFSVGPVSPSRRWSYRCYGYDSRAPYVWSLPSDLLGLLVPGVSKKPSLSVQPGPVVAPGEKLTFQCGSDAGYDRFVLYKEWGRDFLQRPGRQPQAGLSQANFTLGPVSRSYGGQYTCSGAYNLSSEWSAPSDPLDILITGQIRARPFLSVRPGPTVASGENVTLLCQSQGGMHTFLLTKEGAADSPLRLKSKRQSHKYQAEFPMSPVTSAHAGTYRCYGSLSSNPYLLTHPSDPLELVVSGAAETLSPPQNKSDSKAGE
T11 sequence (P59901 24-446 limits assumed): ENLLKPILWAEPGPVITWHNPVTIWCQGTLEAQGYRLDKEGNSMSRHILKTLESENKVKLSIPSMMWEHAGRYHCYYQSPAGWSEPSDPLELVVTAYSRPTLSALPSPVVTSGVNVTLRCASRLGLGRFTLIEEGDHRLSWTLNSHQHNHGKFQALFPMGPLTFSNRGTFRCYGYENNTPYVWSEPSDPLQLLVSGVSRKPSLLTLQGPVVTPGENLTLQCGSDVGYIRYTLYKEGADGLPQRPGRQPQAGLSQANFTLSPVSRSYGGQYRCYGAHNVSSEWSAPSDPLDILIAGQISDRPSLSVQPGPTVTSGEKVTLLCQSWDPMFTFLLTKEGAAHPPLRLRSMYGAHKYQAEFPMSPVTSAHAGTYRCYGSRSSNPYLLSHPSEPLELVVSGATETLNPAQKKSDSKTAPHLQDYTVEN
T3 sequence (Q6PI73 24-447 limits assumed): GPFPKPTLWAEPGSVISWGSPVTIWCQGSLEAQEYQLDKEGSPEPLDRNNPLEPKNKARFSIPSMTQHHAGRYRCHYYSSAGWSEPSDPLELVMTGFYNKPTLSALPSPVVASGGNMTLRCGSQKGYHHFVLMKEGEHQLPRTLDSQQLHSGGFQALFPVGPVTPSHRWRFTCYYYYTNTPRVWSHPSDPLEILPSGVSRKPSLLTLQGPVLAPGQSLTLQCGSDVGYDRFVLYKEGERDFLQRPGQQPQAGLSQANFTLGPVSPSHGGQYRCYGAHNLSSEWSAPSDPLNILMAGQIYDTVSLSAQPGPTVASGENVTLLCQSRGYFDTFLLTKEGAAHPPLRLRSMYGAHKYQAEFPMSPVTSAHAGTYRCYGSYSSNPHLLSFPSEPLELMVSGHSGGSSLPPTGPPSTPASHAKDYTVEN

IC50(μg/mL), 抑制THP-1分泌ARG1 (arginase activity in supernatant, with 0.5μg/mL ApoE) [1]: 257 µg/mL | binding result (LILRA5 [2]): no binding (tested: 50μg/mL) | binding result (LILRA6 [3]): no binding (tested: 50μg/mL) | binding result (LILRB1 [4]): no binding (tested: 50μg/mL) | binding result (LILRB2 [5]): no binding (tested: 50μg/mL) | binding result (LILRB3 [6]): no binding (tested: 50μg/mL) | binding result (LILRB5 [7]): no binding (tested: 50μg/mL) | binding result (LILRA1 [8]): no binding (tested: 50μg/mL) | binding result (LILRA2 [9]): no binding (tested: 50μg/mL) | binding result (LILRA3 [10]): no binding (tested: 50μg/mL) | binding result (LILRA4 [11]): no binding (tested: 50μg/mL) | OD 450nm/630nm (LILRA5 [12]): 0.066 | OD 450nm/630nm (LILRA6 [13]): 0.053 | OD 450nm/630nm (LILRB1 [14]): 0.045 | OD 450nm/630nm (LILRB2 [15]): 0.04 | OD 450nm/630nm (LILRB3 [16]): 0.05 | OD 450nm/630nm (LILRB5 [17]): 0.176 | OD 450nm/630nm (LILRB4抗原 (人LILRB4蛋白胞外段) [18]): 2.72 | OD 450nm/630nm (LILRA1 [19]): 0.103 | OD 450nm/630nm (LILRA2 [20]): 0.046 | OD 450nm/630nm (LILRA3 [21]): 0.057 | OD 450nm/630nm (LILRA4 [22]): 0.077 | EC50 (LILRB4抗原 (人LILRB4蛋白胞外段) [23]): 0.188 µg/mL | EC50 [24]: 4.31 µg/mL | IC50 [25]: 7.18 µg/mL
B1: MG-Ⅰ 单克隆抗体 (mouse IgG1 / Ck full antibody) (antibody, V domains shown)
VH: EVKLEESGGGLVKPGGSLKLSCAASGFTFSSNTMSWVRQTPEKRLEWVATISSGGSYIYYRDSVKGRFTISRDNAKNTLYLQMSSLKSEDTAMYYCTSEGRSRDPYYYSMDYWGQGTSVTVSS
VL: DIVLTQTPLSLPVSLGDQASISCRSSQSLVHSNGNTYLHWYLQKPGQSPKLLIYKVSNRFSGVPDRFSGSGSGTDFTLKISRVEAEDLGVYFCSQSTHVPTFGAGTKLELKA
notes: also called 单克隆抗体MG-Ⅰ
